Substitutions are numbered along the chain they refer to.
T1: human PVRIG-his (AcroBiosystems, Cat NO. PVG-H52H4) (human, UniProt Q6DKI7 41-171, limits assumed)
T1 construct: also called human PVRIG protein
T1 sequence (looked up): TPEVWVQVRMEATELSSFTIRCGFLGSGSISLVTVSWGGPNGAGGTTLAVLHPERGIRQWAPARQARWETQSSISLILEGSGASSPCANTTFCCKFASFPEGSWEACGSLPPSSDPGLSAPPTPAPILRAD

T2: human PVRIG-mFc protein (Acro, PVG-H5253) (human, UniProt Q6DKI7 41-171, limits assumed)
T2 construct: extracellular domain; Bought protein; also called PVRIG-ECD-mFc; not shown: mouse Fc tag of the bought protein
T2 sequence (looked up): T1 sequence (looked up)

B1: COM701-hIgG1 (antibody, V domains shown)
VH: QVQLVQSGAEVKKPGASVKVSCKASGYTFTDYNINWVRQAPGQGLEWMGYIYPYIGGSGYAQKFQGRVTMTRDTSTSTVYMELSSLRSEDTAVYYCAREDKTARNAMDYWGQGTLVTVSS
VL: DIQMTQSPSSLSASVGDRVTITCRVSENIYSNLAWYQQKPGKAPKLLIYEATNLAEGVPSRFSGSGSGTDFTLTISSLQPEDFATYYCQHFWGTPYTFGQGTKLEIK
notes: positive control; human IgG1 format
B2: SRF813-hIgG1 (antibody, V domains shown)
VH: QVQLVQSGAEVKKPGSSVKVSCKASGGTFSSAAISWVRQAPGQGLEWMGNIIPIVGIANYAQKFQGRVTITADESTSTAYMELSSLRSEDTAVYYCARDTGRGYTRHFWFDPWGQGTLVTVSS
VL: DIQMTQSPSSLSASVGDRVTITCRASQSISSYLNWYQQKPGKAPKLLIYAASSLQSGVPSRFSGSGSGTDFTLTISSLQPEDFATYYCQQSDILYTFGGGTKVEIK
notes: as for B1
B3: PVRIG-A118-H3 (Fc fusion)
chain: EVQLVESGGGLVQPGGSLRLSCAASETYFDLYVMGWYRQAPGKDRELVATITYTGSIKYVDSVKGRFTISRGDAKNSLYLQMNSLRAEDTAVYYCNADPSGLGRKVYWGQGTMVTVSS
notes: VHH-human IgG1 Fc format is stated for the parental VHH antibodies; not restated for the humanized variants; also called A118.VH3; not shown: human IgG1 hinge-CH2-CH3 (Fc)
B4: PVRIG-A118-H4 (Fc fusion)
chain: B3 chain with Y79S
notes: VHH-human IgG1 Fc format is stated for the parental VHH antibodies; not restated for the humanized variants; also called A118.VH4; not shown: human IgG1 hinge-CH2-CH3 (Fc)
B5: PVRIG-A118-H5 (Fc fusion)
chain: B3 chain with L78V
notes: VHH-human IgG1 Fc format is stated for the parental VHH antibodies; not restated for the humanized variants; also called A118.VH5; not shown: human IgG1 hinge-CH2-CH3 (Fc)
B6: PVRIG-A118 (Fc fusion)
chain: QVQLVESGGGLVQAGGSLRLSCAASETYFDLYVMGWYRQAPGKDRELVATITYTGSIKIVDSVKDRFTISRGDAKNTVSLQMSSLKPEDTAVYFCNADPSGLGRKVYWGQGTQVTVSS
notes: Alpaca VHH expressed as VHH-hinge-CH2-CH3 of human IgG1; not shown: human IgG1 hinge-CH2-CH3 (Fc)
B7: PVRIG-A118-H2 (Fc fusion)
chain: B3 chain with G72D, D73N
notes: VHH-human IgG1 Fc format is stated for the parental VHH antibodies; not restated for the humanized variants; also called A118.VH2; not shown: human IgG1 hinge-CH2-CH3 (Fc)
B8: PVRIG-A118-H1 (Fc fusion)
chain: B3 chain with K58Y, G72D, D73N
notes: VHH-human IgG1 Fc format is stated for the parental VHH antibodies; not restated for the humanized variants; also called A118.VH1; not shown: human IgG1 hinge-CH2-CH3 (Fc)
B9: PVRIG-A118-H7 (Fc fusion)
chain: B3 chain with Y94F
notes: VHH-human IgG1 Fc format is stated for the parental VHH antibodies; not restated for the humanized variants; also called A118.VH7; not shown: human IgG1 hinge-CH2-CH3 (Fc)
B10: PVRIG-A118-H6 (Fc fusion)
chain: B3 chain with Y59I
notes: VHH-human IgG1 Fc format is stated for the parental VHH antibodies; not restated for the humanized variants; also called A118.VH6; not shown: human IgG1 hinge-CH2-CH3 (Fc)
B11: PVRIG-A105-H2 (Fc fusion)
chain: EVQLVESGGGLVQPGGSLRLSCAASGRTFDRHTMTWFRQAPGKEREFVATASRIPGDTYYVDSVKGRFTISRDNAKNSLYLQMNSLRAEDTAVYYCAATSAYCSEVDCYEKGSWYDNWGQGTMVTVSS
notes: VHH-human IgG1 Fc format is stated for the parental VHH antibodies; not restated for the humanized variants; also called A105 VH2; not shown: human IgG1 hinge-CH2-CH3 (Fc)
B12: PVRIG-A105-H3a (Fc fusion)
chain: B11 chain with L79V, C103S, C108S
notes: VHH-human IgG1 Fc format is stated for the parental VHH antibodies; not restated for the humanized variants; also called A105.VH3a; not shown: human IgG1 hinge-CH2-CH3 (Fc)
B13: PVRIG-A105 (Fc fusion)
chain: EVQLVESGGGLVQAGGSLRLSCAASGRTFDRHTMTWFRQAPGKEREFVATASRIPGDTYYSHSVKGRFTISRDNAKNTVYLQLNNLKPEDTAVYYCAATSAYCSEVDCYEKGSWYDNWGQGIQVTVSS
notes: as for B6
B14: PVRIG-A105-H4 (Fc fusion)
chain: B11 chain with V61S, D62H
notes: VHH-human IgG1 Fc format is stated for the parental VHH antibodies; not restated for the humanized variants; also called A105.VH4; not shown: human IgG1 hinge-CH2-CH3 (Fc)
B15: PVRIG-A105-H5 (Fc fusion)
chain: B11 chain with T122I, M123Q
notes: VHH-human IgG1 Fc format is stated for the parental VHH antibodies; not restated for the humanized variants; also called A105.VH5; not shown: human IgG1 hinge-CH2-CH3 (Fc)
B16: PVRIG-A105-H3 (Fc fusion)
chain: B11 chain with L79V
notes: VHH-human IgG1 Fc format is stated for the parental VHH antibodies; not restated for the humanized variants; also called A105.VH3; not shown: human IgG1 hinge-CH2-CH3 (Fc)
B17: PVRIG-A50-H1 (Fc fusion)
chain: EVQLVESGGGLVQPGGSLRLSCAASGFTFSYYDMSWVRQAPGKGLEWVSTINSNGGRTSYVDSVKGRFTISRDNSKNTLYLQMNSLRAEDTAVYYCVEGDPHNFGLENLSLRDFGSWGQGTMVTVSS
notes: VHH-human IgG1 Fc format is stated for the parental VHH antibodies; not restated for the humanized variants; also called A50.VH1; not shown: human IgG1 hinge-CH2-CH3 (Fc)
B18: PVRIG-A50-H1e (Fc fusion)
chain: B17 chain with G55A, N108S
notes: VHH-human IgG1 Fc format is stated for the parental VHH antibodies; not restated for the humanized variants; also called VH1e; not shown: human IgG1 hinge-CH2-CH3 (Fc)
B19: PVRIG-A50 (Fc fusion)
chain: B17 chain with S75T, R87K, A88P, M122Q
notes: Alpaca VHH expressed as VHH-hinge-CH2-CH3 of human IgG1 (heavy-chain antibody); also called PVRIG-50; not shown: human IgG1 hinge-CH2-CH3 (Fc)
B20: PVRIG-A50-H1c (Fc fusion)
chain: B17 chain with N54D, S110A
notes: VHH-human IgG1 Fc format is stated for the parental VHH antibodies; not restated for the humanized variants; also called A50.VH1c; not shown: human IgG1 hinge-CH2-CH3 (Fc)
B21: PVRIG-A50-H1d (Fc fusion)
chain: B17 chain with N108S
notes: VHH-human IgG1 Fc format is stated for the parental VHH antibodies; not restated for the humanized variants; also called A50.VH1d; not shown: human IgG1 hinge-CH2-CH3 (Fc)
B22: PVRIG-A50-H1a (Fc fusion)
chain: B17 chain with N54D
notes: VHH-human IgG1 Fc format is stated for the parental VHH antibodies; not restated for the humanized variants; also called A50.VH1a; not shown: human IgG1 hinge-CH2-CH3 (Fc)
B23: PVRIG-A50-H2a (Fc fusion)
chain: B17 chain with G55A, S75T, N108S
notes: VHH-human IgG1 Fc format is stated for the parental VHH antibodies; not restated for the humanized variants; also called A50.VH2a; not shown: human IgG1 hinge-CH2-CH3 (Fc)

Target: T1, human PVRIG-his (AcroBiosystems, Cat …)
Assay: SPR (BIAcore), antibody captured on Protein A chip, human PVRIG-His analyte
Protocol: Biacore was used to detect the specific binding between anti-PVRIG antibody and human PVRIG protein. Protein A chip was used in the BIAcore assay. The time required for the chip to capture the diluted antibody and saturate the binding antigen to reach Rₘₐₓ (Maximum binding capacity, 50 RU) was measured by manual run. […] The affinity of antibody for antigen was measured by multi-cycle kinetics. In each cycle, the antibodies were injected prior to the injection of gradient concentraions of PVRIG proteins allowing the occurrence of antibody-antigen association and dissociation After each cycle, the Protein A chip was regenerated by Glycine, pH 1.5 (to remove the proteins on the chip). The affinity of antibody for antigen was calculated by BIAcore T200 analysis software.

Binder	Kd [pM]	koff [s⁻¹]	kon [M⁻¹ s⁻¹]
B1	319	0.000651	2.04e+06
B2	278	0.000317	1.14e+06

Target: T2, human PVRIG-mFc protein (Acro, …)
Assay: FACS blocking of PVRIG-mFc binding to CHO-K1-CD112 cells; competitor CD112
Summary of the method: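 After a further 30 min at 4° C with Zombie violet-stained CHO-K1-CD112 cells, binding was detected with PE goat anti-mouse IgG Fc (1:250) as mean fluorescence intensity on a BD Canto II. IC50 and curve AUC, taken from four-parameter logistic fits in GraphPad Prism, were expressed relative to a reference antibody as percentages.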

Binder	% AUC to COM701-hIgG4 [%]	% AUC to SO35-hIgG1 [%]	% AUC to parental Ab [%]	% IC50 to COM701-hIgG4 [%]	% IC50 to SO35-hIgG1 [%]	% IC50 to parental Ab [%]
B3	127	65.8	107	146	98.8	104
B4	116	60.4	97.9	141	95.4	100
B5	127	66.1	107	144	97.4	102
B6	119	61.7	100	141	95.3	100
B7	142	73.7	120	161	109	115
B8	120	62.4	101	141	95.4	100
B9	124	64.3	104	143	97.1	102
B10	119	61.7	100	145	97.8	103
B11	–	–	–	109	92.3	104
B12	3530	2040	3100	3060	2590	2930
B13	114	65.6	100	104	88.3	100
B14	112	64.6	98.4	110	93.2	105
B15	–	–	–	110	93.4	106
B16	109	62.9	95.8	109	91.9	104
B17	115	67.8	94	101	78	86.1
B18	126	74.1	103	130	101	111
B19	122	72.1	100	117	90.6	100
B20	132	77.7	108	122	94.7	105
B21	121	71.1	98.7	115	89.1	98.4
B22	125	73.5	102	120	93	103
B23	112	66	91.6	118	91.7	101
